Measurements as given in US20210101932A1 (Bicycle, published 2021).
Each block holds one binder with its values, some of them ahead of it. *1 amine or outer side, *2 acyl side, *3 side chain or, on linkers, in order; H or OH if unused. Bridges are numbered along the chain shown (N, C = ends). Where no end group is shown, it is not given here. [ ]: non-standard residue; d: D form. TATA = O=C(CC[*:1])N1CN(C(=O)CC[*:2])CN(C(=O)CC[*:3])C1; hArg = N=C(N)NCCCC[C@H](N)C(=O)O; Aad = N[C@@H](CCCC(=O)O)C(=O)O; Chg = N[C@H](C(=O)O)C1CCCCC1; Nle = CCCC[C@H](N)C(=O)O; Nva = CCC[C@H](N)C(=O)O; Aib = CC(C)(N)C(=O)O

Molecular target: T1, Recombinant human PD-L1 (Sino Biologicals or R&D systems), biotinylated (human, UniProt Q9NZQ7 19-238, limits assumed, biotinylated with EZ-Link Sulfo-NHS-LC-LC-Biotin)
T1 construct: captured on a streptavidin CM5 chip for SPR; also called human PD-L1 protein; Biotinylated PD-L1
Assay: SPR (Biacore), biotinylated PD-L1 on streptavidin chip
Experimental: Biacore experiments were performed to determine kₐ) (M⁻¹s⁻¹), kd (s⁻¹), KD (nM) values of monomeric peptides binding to human PD-L1 protein. […] The protein was desalted to remove uncoupled biotin using spin columns into PBS. For analysis of binding, a Biacore 3000 instrument was used utilizing a CM5 sensor chip (GE Healthcare). Streptavidin was immobilized on the chip using standard amine-coupling chemistry at 25° C. with HBS-N (10 mM HEPES, 0.15 M NaCl, pH 7.4) as the running buffer. The carboxymethyl dextran surface was activated with a 12 min injection of a 1:1 ratio of 0.4 M 1-ethyl-3-(3-dimethylaminopropyl) carbodiimide hydrochloride (EDC)/0.1 M N-hydroxy succinimide (NHS) at a flow rate of 10 μl/min. For capture of streptavidin, protein was diluted to 0.1 mg/ml in 10 mM sodium acetate (pH 4.5) and captured by injecting 70 μl onto the activated chip surface. Residual activated groups were blocked with a 7 min injection of 1 M ethanolamine (pH 8.5). Biotinylated PD-L1 stock was diluted 1:100 in HBS-N and captured on one flow cell at 5 μl/min to a level of 1000-1300 RU. Buffer was changed to PBS/0.05% Tween 20 and a dilution series of the peptides was prepared in this buffer with a final DMSO concentration of 0.5%. The top concentrations were 200 nM or 500 nM with 6 2-fold dilutions. The SPR analysis was run at 25° C. at a flow rate of Flow rate 50 μl/min with 60 seconds association and 400 seconds disassociation. Data were corrected for DMSO excluded volume effects. All data were double-referenced for blank injections and reference surface using standard processing procedures and data processing and kinetic fitting were performed using Scrubber software, version 2.0c (Biologic Software). Data were fitted using mass transport model allowing for mass transport effects where appropriate.

T1 sequence (Q9NZQ7 19-238 limits assumed): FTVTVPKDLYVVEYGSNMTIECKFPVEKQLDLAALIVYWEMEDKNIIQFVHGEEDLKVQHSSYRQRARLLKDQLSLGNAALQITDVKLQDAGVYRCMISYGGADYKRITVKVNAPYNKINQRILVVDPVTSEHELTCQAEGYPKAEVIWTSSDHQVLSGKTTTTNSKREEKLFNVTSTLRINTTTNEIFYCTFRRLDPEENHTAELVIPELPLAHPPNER

Binder: SDKCSAGWLTMCQKXHLCA ([Nle] as in SDKCSAGWLTMCQK[Nle]HLCA; Ci, Cii, Ciii cyclised on TATA) [BCY10071]
Kd: 58.2 nM

Binder: SDKCSAGWLTMCQK[Nva]HLCA (linker 4-12-18 via TATA) [BCY10084]
Kd: 43.2 nM

Binder: SDKCSXGWLTMCQKLHLCA ([Aib] as in SDKCS[Aib]GWLTMCQKLHLCA; Ci, Cii, Ciii cyclised on TATA) [BCY10054]
Kd: 31.2 nM

B2: BCY11824 (peptide)
peptide: Ac-KCS[Aad]GWLTMCLKLHLC
modifications: linker 2-10-16 via TATA; not fully specified (C-terminus); printed as Ac-KCS[Aad]GWLTMCLKLHLC
Kd: 60 nM

Binder: SDKCSXGWLTMCQKLHLCA ([Abu] as in SDKCS[Abu]GWLTMCQKLHLCA; Ci, Cii, Ciii cyclised on TATA) [BCY10055]
Kd: 27.9 nM

Binder: SDKCSAGWLTMCQKLH[Nva]CA (linker 4-12-18 via TATA) [BCY10083]
Kd: 75 nM

B4: BCY11827 (peptide)
peptide: Ac-[hArg]CS[Aad]GWLTMCLKLHLC
modifications: linker 2-10-16 via TATA; not fully specified (C-terminus); printed as Ac-[HArg]CS[Aad]GWLTMCLKLHLC
Kd: 30 nM

Binder: SDKCSAGWLTMCQKL[Aib]LCA (linker 4-12-18 via TATA) [BCY10073]
Kd: 15.8 nM

Binder: Ac-SEKCS[Aad]GWLTMCLKLHLCPSH (linker 4-12-18 via TATA) [BCY11831]
Kd: 13.2 nM

Binder: SDKCS[Nle]GWLTMCQKLHLCA (linker 4-12-18 via TATA) [BCY10062]
Kd: 23 nM

Continued by falling Kd, values first:

Kd: 59.7 nM
Binder: SDKCSAGWLTXCQKLHLCA ([Nle] as in SDKCSAGWLT[Nle]CQKLHLCA; Ci, Cii, Ciii cyclised on TATA) [BCY10058]

Kd: 54.5 nM
Binder: SDKCSAGWLTMCQ[Nle]LHLCA (linker 4-12-18 via TATA) [BCY10068]

Kd: 36.1 nM
Binder: SDKCSAGWLTMCQKLHXCA ([Nle] as in SDKCSAGWLTMCQKLH[Nle]CA; Ci, Cii, Ciii cyclised on TATA) [BCY10074]

Kd: 28.8 nM
Binder: Ac-SEKCS[Aad]GWLTMCLKLHLC (linker 4-12-18 via TATA) [BCY11825]

Kd: 22.3 nM
Binder: SDXCSAGWLTMCQKLHLCA ([HArg] (homoarginine) = X at chain position 3; Ci, Cii, Ciii cyclised on TATA) [BCY10052]

Kd: 18.2 nM
Binder: Ac-EKCS[Aad]GWLTMCLKLHLC (linker 3-11-17 via TATA) [BCY11826]

Kd: 17.6 nM
B3: BCY11853 (peptide)
peptide: Ac-DKCS[Aad]GWLTMCQKLHLCPSH-OH
modifications: linker 3-11-17 via TATA
SMILES: CSCC[C@@H]1NC(=O)[C@H]([C@@H](C)O)NC(=O)[C@H](CC(C)C)NC(=O)[C@H](Cc2c[nH]c3ccccc23)NC(=O)CNC(=O)[C@H](CCCC(=O)O)NC(=O)[C@H](CO)NC(=O)[C@@H](NC(=O)[C@H](CCCCN)NC(=O)[C@H](CC(=O)O)NC(C)=O)CSCCC(=O)N2CN3CN(C2)C(=O)CCSC[C@@H](C(=O)N2CCC[C@H]2C(=O)N[C@@H](CO)C(=O)N[C@@H](Cc2c[nH]cn2)C(=O)O)NC(=O)[C@H](CC(C)C)NC(=O)[C@H](Cc2c[nH]cn2)NC(=O)[C@H](CC(C)C)NC(=O)[C@H](CCCCN)NC(=O)[C@H](CCC(N)=O)NC(=O)[C@H](CSCCC3=O)NC1=O

Kd: 16.6 nM
Binder: Ac-SDKCS[Aad]GWLTMCLKLHLCA (linker 4-12-18 via TATA) [BCY11828]

Kd: 14.4 nM
Binder: SDKCSAGWLTMC[Chg]KLHLCA (linker 4-12-18 via TATA) [BCY10066]

Kd: 9.94 nM
B1: BCY10960 (peptide)
peptide: Ac-SDKCSEGWLTMCQKLHLC
modifications: linker 4-12-18 via TATA; not fully specified (C-terminus); printed as [Ac]SDKCSEGWLTMCQKLHLC
